Molecular target: C3 convertase complex (UniProt P01024 23-1663; P00751 260-764)
Assay: cell-based or functional assay
For C3 convertase activity % of the control in this document: test concentration or dose not given here.

Chain of C3 convertase complex (P01024 23-1663, chain 1 of 2): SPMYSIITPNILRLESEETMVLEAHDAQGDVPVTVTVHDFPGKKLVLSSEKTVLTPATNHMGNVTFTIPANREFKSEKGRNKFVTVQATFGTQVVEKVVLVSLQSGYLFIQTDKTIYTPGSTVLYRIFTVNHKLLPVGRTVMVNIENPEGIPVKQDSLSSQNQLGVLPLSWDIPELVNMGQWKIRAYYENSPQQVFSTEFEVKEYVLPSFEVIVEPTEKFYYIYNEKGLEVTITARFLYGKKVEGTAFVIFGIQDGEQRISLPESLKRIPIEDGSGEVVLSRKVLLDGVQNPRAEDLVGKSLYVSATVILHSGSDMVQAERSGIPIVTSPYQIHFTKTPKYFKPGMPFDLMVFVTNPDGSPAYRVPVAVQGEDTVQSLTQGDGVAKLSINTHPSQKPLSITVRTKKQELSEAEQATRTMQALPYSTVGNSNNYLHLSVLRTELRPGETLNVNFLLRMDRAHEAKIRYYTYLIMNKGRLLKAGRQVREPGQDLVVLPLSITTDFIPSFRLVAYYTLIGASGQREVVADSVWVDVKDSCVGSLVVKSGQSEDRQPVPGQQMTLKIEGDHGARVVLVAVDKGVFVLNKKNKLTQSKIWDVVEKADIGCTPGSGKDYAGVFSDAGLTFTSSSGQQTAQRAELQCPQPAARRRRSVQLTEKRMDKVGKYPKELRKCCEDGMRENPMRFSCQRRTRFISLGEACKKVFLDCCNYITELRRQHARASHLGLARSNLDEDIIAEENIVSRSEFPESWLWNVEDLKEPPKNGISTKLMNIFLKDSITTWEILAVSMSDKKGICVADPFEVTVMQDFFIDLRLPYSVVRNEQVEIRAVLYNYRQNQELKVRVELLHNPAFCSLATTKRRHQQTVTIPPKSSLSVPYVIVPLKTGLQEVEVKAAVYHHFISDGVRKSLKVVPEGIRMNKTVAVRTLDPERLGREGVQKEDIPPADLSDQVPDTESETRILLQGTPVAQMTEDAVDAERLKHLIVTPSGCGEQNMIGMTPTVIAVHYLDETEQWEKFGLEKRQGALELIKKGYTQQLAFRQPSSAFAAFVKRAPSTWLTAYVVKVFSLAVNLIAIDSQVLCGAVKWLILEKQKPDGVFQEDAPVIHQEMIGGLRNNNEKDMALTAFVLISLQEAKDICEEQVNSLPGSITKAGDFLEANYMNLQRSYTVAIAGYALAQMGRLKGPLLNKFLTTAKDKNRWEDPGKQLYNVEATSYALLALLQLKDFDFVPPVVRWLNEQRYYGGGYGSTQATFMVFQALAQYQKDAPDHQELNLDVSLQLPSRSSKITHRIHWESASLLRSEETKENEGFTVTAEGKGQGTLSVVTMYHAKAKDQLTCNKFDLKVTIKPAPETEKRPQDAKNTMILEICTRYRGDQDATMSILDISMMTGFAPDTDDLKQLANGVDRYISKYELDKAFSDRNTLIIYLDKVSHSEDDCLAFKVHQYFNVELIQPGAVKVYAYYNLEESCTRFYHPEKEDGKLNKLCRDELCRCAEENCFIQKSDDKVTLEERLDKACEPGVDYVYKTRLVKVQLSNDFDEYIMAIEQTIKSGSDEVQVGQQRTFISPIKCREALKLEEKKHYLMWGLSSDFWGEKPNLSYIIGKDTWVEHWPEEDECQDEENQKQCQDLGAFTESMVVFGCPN
Chain of C3 convertase complex (P00751 260-764, chain 2 of 2): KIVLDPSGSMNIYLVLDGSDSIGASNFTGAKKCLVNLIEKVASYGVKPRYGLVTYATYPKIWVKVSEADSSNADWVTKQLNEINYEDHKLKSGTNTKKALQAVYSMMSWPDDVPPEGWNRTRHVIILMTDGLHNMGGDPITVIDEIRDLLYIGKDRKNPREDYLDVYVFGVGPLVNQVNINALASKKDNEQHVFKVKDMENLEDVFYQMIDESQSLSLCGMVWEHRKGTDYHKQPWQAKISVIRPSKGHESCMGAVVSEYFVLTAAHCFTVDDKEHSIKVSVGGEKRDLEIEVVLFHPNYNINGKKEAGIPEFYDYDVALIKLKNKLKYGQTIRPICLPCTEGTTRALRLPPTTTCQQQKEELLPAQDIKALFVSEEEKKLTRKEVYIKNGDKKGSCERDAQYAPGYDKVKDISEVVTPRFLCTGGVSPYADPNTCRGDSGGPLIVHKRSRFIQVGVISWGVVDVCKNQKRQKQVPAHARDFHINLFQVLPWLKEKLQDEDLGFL

| Binder | C3 convertase activity % of the control | C3 convertase activity IC50 |
| --- | --- | --- |
| pCEP4-1NT4-8CT20 (other) EDCNELPPRRNTEILTGSWSDQTYPEGTQAIYKCRPGYRSLGNVIMVCRKGEWVALNPLRKCQKRPCGHPGDTPFGTFTLTGGNVFEYGVKAVYTCNEGYQLLGEINYRECDTDGWTNDIPICEVVKCLPVTAPENGKIVSSAMEPDREYHFGQAVRFVCNSGYKIEGDEEMHCSDDGFWSKEKPKCVEISCKSPDVINGSPISQKIIYKENERFQYKCNMGYEYSERGDAVCTESGWRPLPSCEEKSGASGCSKSSIDIENGFISESQYTYALKEKAKYQCKLGYVTADGETSGSITCGKDGWSAQPTCIKSCDIPVFMNARTKNDFTWFKLNDTLDYECHDGYESNTGSTTGSIVCGYNGWSDLPICYERECELPKIDVHLVPDRKKDQYKVGEVLKFSCKPGFTIVGPNSVQCYHFGLSPDLPICKEQVQSCGPPPELLNGNVKEKTKEEYGHSEVVEYYCNPRFLMKGPNKIQCVDGEWTTLPVCIVEESTCGDIPELEHGWAQLSSPPYYYGDSVEFNCSESFTMIGHRSITCIHGVWTQLPQCVAIDKLKKCKSSNLIILEEHLKNKKEFDHNSNIRYRCRGKEGWIHTVCINGRWDPEVNCSMAQIQLCPPPPQIPNSHNMTTTLNYRDGEKVSVLCQENYLIQEGEEITCKDGRWQSIPLCVEKIPCSQPPQIEHGTINSSRSSQESYAHGTKLSYTCEGGFRISEENETTCYMGKWSSPPQCEGLPCKSPPEISHGVVAHMSDSYQYGEEVTYKCFEGFGIDGPAIAKCLGEKWSHPPSCIKTDCLSLPSFENAIPMGEKKDVYKAGEQVTYTCATYYKMDGASNVTCINSRWTGRPTCRDTSCVNPPTVQNAYIVSRQMSKYPSGERVRYQCRSPYEMFGDEEVMCLNGNWTEPPQCKDSTGKCGPPPPIDNGDITSFPLSVYAPASSVEYQCQNLYQLEGNKRITCRNGQWSEPPKCLHPCVISREIMENYNIALRWTAKQKLYSRTGESVEFVCKRGYRLSSRSHTLRTTCWDGKLEYPTCAKRGGSGHHHHHH | 42 % of the control | 0.228 µg/mL |
| pCEP4-1NT4-10CT20 (other) EDCNELPPRRNTEILTGSWSDQTYPEGTQAIYKCRPGYRSLGNVIMVCRKGEWVALNPLRKCQKRPCGHPGDTPFGTFTLTGGNVFEYGVKAVYTCNEGYQLLGEINYRECDTDGWTNDIPICEVVKCLPVTAPENGKIVSSAMEPDREYHFGQAVRFVCNSGYKIEGDEEMHCSDDGFWSKEKPKCVEISCKSPDVINGSPISQKIIYKENERFQYKCNMGYEYSERGDAVCTESGWRPLPSCEEKSGASGCELPKIDVHLVPDRKKDQYKVGEVLKFSCKPGFTIVGPNSVQCYHFGLSPDLPICKEQVQSCGPPPELLNGNVKEKTKEEYGHSEVVEYYCNPRFLMKGPNKIQCVDGEWTTLPVCIVEESTCGDIPELEHGWAQLSSPPYYYGDSVEFNCSESFTMIGHRSITCIHGVWTQLPQCVAIDKLKKCKSSNLIILEEHLKNKKEFDHNSNIRYRCRGKEGWIHTVCINGRWDPEVNCSMAQIQLCPPPPQIPNSHNMTTTLNYRDGEKVSVLCQENYLIQEGEEITCKDGRWQSIPLCVEKIPCSQPPQIEHGTINSSRSSQESYAHGTKLSYTCEGGFRISEENETTCYMGKWSSPPQCEGLPCKSPPEISHGVVAHMSDSYQYGEEVTYKCFEGFGIDGPAIAKCLGEKWSHPPSCIKTDCLSLPSFENAIPMGEKKDVYKAGEQVTYTCATYYKMDGASNVTCINSRWTGRPTCRDTSCVNPPTVQNAYIVSRQMSKYPSGERVRYQCRSPYEMFGDEEVMCLNGNWTEPPQCKDSTGKCGPPPPIDNGDITSFPLSVYAPASSVEYQCQNLYQLEGNKRITCRNGQWSEPPKCLHPCVISREIMENYNIALRWTAKQKLYSRTGESVEFVCKRGYRLSSRSHTLRTTCWDGKLEYPTCAKRGGSGHHHHHH | 38 % of the control | 0.244 µg/mL |

Next, values leading:

| C3 convertase activity % of the control | C3 convertase activity IC50 | Binder |
| --- | --- | --- |
| 45 % of the control | 0.776 µg/mL | pCEP4-1NT13-14CT20 (other) EDCNELPPRRNTEILTGSWSDQTYPEGTQAIYKCRPGYRSLGNVIMVCRKGEWVALNPLRKCQKRPCGHPGDTPFGTFTLTGGNVFEYGVKAVYTCNEGYQLLGEINYRECDTDGWTNDIPICEVVKCLPVTAPENGKIVSSAMEPDREYHFGQAVRFVCNSGYKIEGDEEMHCSDDGFWSKEKPKCVEISCKSPDVINGSPISQKIIYKENERFQYKCNMGYEYSERGDAVCTESGWRPLPSCEEKSCDNPYIPNGDYSPLRIKHRTGDEITYQCRNGFYPATRGNTAKCTSTGWIPAPRCTLKPCDYPDIKHGGLYHENMRRPYFPVAVGKYYSYYCDEHFETPSGSYWDHIHCTQDGWSPAVPCLRKCYFPYLENGYNQNHGRKFVQGKSIDVACHPGYALPKAQTTVTCMENGWSPTPRCIRVKTCSKSSIDIENGFISESQYTYALKEKAKYQCKLGYVTADGETSGSITCGKDGWSAQPTCIKSCDIPVFMNARTKNDFTWFKLNDTLDYECHDGYESNTGSTTGSIVCGYNGWSDLPICYERECELPKIDVHLVPDRKKDQYKVGEVLKFSCKPGFTIVGPNSVQCYHFGLSPDLPICKEQVQSCGPPPELLNGNVKEKTKEEYGHSEVVEYYCNPRFLMKGPNKIQCVDGEWTTLPVCIVEESTCGDIPELEHGWAQLSSPPYYYGDSVEFNCSESFTMIGHRSITCIHGVWTQLPQCVAIDKLKKCKSSNLIILEEHLKNKKEFDHNSNIRYRCRGKEGWIHTVCINGRWDPEVNCSMAQIQLGASGCPPPPQIPNSHNMTTTLNYRDGEKVSVLCQENYLIQEGEEITCKDGRWQSIPLCVEKIPCSQPPQIEHGTINSSRSSQESYAHGTKLSYTCEGGFRISEENETTCYMGKWSSPPQCEGLPCKSPPEISHGVVAHMSDSYQYGEEVTYKCFEGFGIDGPAIAKCLGEKWSHPPSCIKTDCLSLPSFENAIPMGEKKDVYKAGEQVTYTCATYYKMDGASNVTCINSRWTGRPTCRDTSCVNPPTVQNAYIVSRQMSKYPSGERVRYQCRSPYEMFGDEEVMCLNGNWTEPPQCKDSTGKCGPPPPIDNGDITSFPLSVYAPASSVEYQCQNLYQLEGNKRITCRNGQWSEPPKCLHPCVISREIMENYNIALRWTAKQKLYSRTGESVEFVCKRGYRLSSRSHTLRTTCWDGKLEYPTCAKRGGSGHHHHHH |
| 49 % of the control | 0.217 µg/mL | pCEP4-1NT9-19CT20 (other) EDCNELPPRRNTEILTGSWSDQTYPEGTQAIYKCRPGYRSLGNVIMVCRKGEWVALNPLRKCQKRPCGHPGDTPFGTFTLTGGNVFEYGVKAVYTCNEGYQLLGEINYRECDTDGWTNDIPICEVVKCLPVTAPENGKIVSSAMEPDREYHFGQAVRFVCNSGYKIEGDEEMHCSDDGFWSKEKPKCVEISCKSPDVINGSPISQKIIYKENERFQYKCNMGYEYSERGDAVCTESGWRPLPSCEEKSCDNPYIPNGDYSPLRIKHRTGDEITYQCRNGFYPATRGNTAKCTSTGWIPAPRCTLKPCDYPDIKHGGLYHENMRRPYFPVAVGKYYSYYCDEHFETPSGSYWDHIHCTQDGWSPAVPCLRKCYFPYLENGYNQNYGRKFVQGKSIDVACHPGYALPKAQTTVTCMENGWSPTPRCIRVKTCSKSSIDIENGFISESQYTYALKEKAKYQCKLGYVTADGETSGSITCGKDGWSAQPTCIKSCDIPVFMNARTKNDFTWFKLNDTLDYECHDGYESNTGSTTGSIVCGYNGWSDLPICYEREGASGCGPPPPIDNGDITSFPLSVYAPASSVEYQCQNLYQLEGNKRITCRNGQWSEPPKCLHPCVISREIMENYNIALRWTAKQKLYSRTGESVEFVCKRGYRLSSRSHTLRTTCWDGKLEYPTCAKRGGSGHHHHHH |

Reference: US20170190753A1 (LABORATOIRE FRANCAIS DU FRACTIONNEMENT ET DES …, published 2017)
